In the supplement of paper PMC10724198 one finds protein stability index data, which are given here for 116 sequences.

± gives the standard deviation of the averaged measurements.
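Also: PSI is a weighted mean of sequencing reads over stability bins, variants kept only with over 10 reads, mCherry proximal and sfGFP distal, peptide attached via GGGS linker.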

The test system of the data set is Saccharomyces cerevisiae. As to the kind of experiment: protein stability index of tFT-peptide fusion (C-terminal peptide) (PSI (0-1 scale)); higher = more stable (slower turnover). To be noted: genetic background: wild type; temperature: 30 C.
In the case of ITEYKIKLKNKE, the protein stability index is 0.671 ± 0.023. ITIRGLTGRFRQ registered a protein stability index of 0.713 ± 0.17.

ITKELHEGEYLY: the protein stability index came out at 0.727 ± 0.0086. With ITKTGAAEHASL the figure was 0.63 ± 0.037.

For ITLSLGRQQIEL, the protein stability index came out at 0.654 ± 0.013.

In the case of ITMYAPEVDKRR, the protein stability index turned out to be 0.709 ± 0.017. With ITSSPSSPPAPP the figure was 0.634 ± 0.0096; with IVEKAVAKGIKE, 0.6767 ± 0.005. The sequence IVFYWLAHRPCA showed a protein stability index of 0.6297 ± 0.0059. With IVGGDSVSALRG the figure was 0.643 ± 0.022; with IVGLLGICVGRC, 0.57 ± 0.024; with IVLGGPAWPVAA, 0.613 ± 0.034. With IVLLNLTHVRSK the figure was 0.647 ± 0.024. Sequence IVRTDTKPYEQS showed a protein stability index of 0.587 ± 0.013. With IVSISCPADWLD the figure was 0.754 ± 0.034; with IWAEYIDAVLIN, 0.6 ± 0.061. With IWGLSSLYGCGW the figure was 0.728 ± 0.011; with IWLVRLSCARAF, 0.5374 ± 0.0019. IYSPQIPTPPVL came in with a protein stability index of 0.664 ± 0.058. With IYTRVWPQSWLP the figure was 0.696 ± 0.038; with KAGLSFSRQRGW, 0.606 ± 0.058; with KAIKNKQKFKEK, 0.726 ± 0.012.

As for KAKCRNRQDEVI, the protein stability index turned out to be 0.742 ± 0.026. With KALGFHGGLHRF the figure was 0.5733 ± 0.0027; with KAQKKGRHSKEL, 0.712 ± 0.0059; with KARMEKKRKIKL, 0.728 ± 0.073.

As for KCAIKKQEQTSR, the protein stability index was 0.642 ± 0.02.

The sequence KCLCSKSGSWPC returned a protein stability index of 0.685 ± 0.0078. Turning to KCSSEPMCKTCR, the protein stability index came out at 0.626 ± 0.053.

For the sequence KDIVSEPKVKRE, the protein stability index was determined as 0.744 ± 0.012. For KDKGEKEKRRTK, the protein stability index was 0.719 ± 0.077. With KDKRKAETKSRN, the protein stability index was found to be 0.688 ± 0.037. KDVGKVATRRSK yielded a protein stability index of 0.696 ± 0.028. With KEARKREHKQTN the figure was 0.67 ± 0.094. With KEGSGQRRARRA the figure was 0.686 ± 0.066.

Consider KEHTKKQERTPK, for which the protein stability index came out at 0.596 ± 0.051. With KEHTNKDEMPKE the figure was 0.705 ± 0.074; with KEILTNNQKGQD, 0.6602 ± 0.0036. With KEKKNKKKKQNR the figure was 0.701 ± 0.021; with KELNRRTNSPSE, 0.644 ± 0.046; with KENKKNDRRDII, 0.728 ± 0.023. With KENNWTKKKKGK the figure was 0.655 ± 0.064. Consider KEQNKVHTQNKK, for which the protein stability index came to 0.755 ± 0.29. With KERARNTKRGSD the figure was 0.641 ± 0.08. With KERLLTLHSHSH the figure was 0.71 ± 0.037; with KERLQLSVNLNI, 0.628 ± 0.067; with KETTEKTEIRII, 0.7 ± 0.012. KEYNIKNEREEK returned a protein stability index of 0.716 ± 0.031. With KFNNIQNWRLAY the figure was 0.787 ± 0.098.

Take KGCRYVGARHEG: the protein stability index worked out at 0.698 ± 0.017. With KGEGRERSRSRK the figure was 0.768 ± 0.034; with KGGLLPWGPWNA, 0.743 ± 0.064.

The sequence KGGSVNRLSQVR registered a protein stability index of 0.6713 ± 0.00097. With KGHGTTCVGRQV the figure was 0.677 ± 0.04. With KGICALKIATGK the figure was 0.603 ± 0.032; with KGKRSRTRKPEE, 0.677 ± 0.013; with KGLSNGKNQIKM, 0.597 ± 0.036.

For the sequence KGQGPAKTRTRE, the protein stability index was determined as 0.723 ± 0.031. With KGQKVAYSRHRA the figure was 0.718 ± 0.063. KGREKTKKKGTK displayed a protein stability index of 0.688 ± 0.011. With KGTQINNRCKLK the figure was 0.684 ± 0.078; with KHDIEYRTQIKK, 0.662 ± 0.033. With KHRIEYQEKNTF the figure was 0.67 ± 0.019; with KIEHEGIKKGGT, 0.807 ± 0.14.

KIIKNKIKKHNK: the protein stability index turned out to be 0.626 ± 0.018. With KIKERKNVKGKK the figure was 0.685 ± 0.024. With KIKINKRIQNKK the figure was 0.682 ± 0.036; with KIKKKRKQKGKQ, 0.722 ± 0.046.

In turn, KIKNNKNKKKKS came in with a protein stability index of 0.693 ± 0.01. On to KIKTIKKHKKKY, for which the protein stability index is 0.713 ± 0.056.

KIMIRKIEIKKE returned a protein stability index of 0.69 ± 0.049. Turning to KINELGYMNLKM, the protein stability index was 0.716 ± 0.013. With KIPEQRISKTKK the figure was 0.745 ± 0.011; with KKAKEETSTPDC, 0.67 ± 0.034; with KKEISSTAGIIV, 0.637 ± 0.073.

KKETKLKKTEVK showed a protein stability index of 0.69 ± 0.095. With KKFRKGKKNKRK the figure was 0.657 ± 0.03. With KKIEAKGMRNDS the figure was 0.599 ± 0.055; with KKIQKKKKLIPQ, 0.7247 ± 0.0058; with KKIQKKTPAIDG, 0.671 ± 0.1. With KKIRGNSQLHPG the figure was 0.63 ± 0.015; with KKITKPKSQRLV, 0.669 ± 0.014. With KKKEKKIKKTIK, the protein stability index turned out to be 0.724 ± 0.048. With KKKEKQRQSKRR the figure was 0.689 ± 0.026; with KKKGSKITKIKD, 0.699 ± 0.064; with KKKIRKKKVRRK, 0.649 ± 0.024.

In the case of KKKKKETKNAQQ, the protein stability index stood at 0.685 ± 0.0077. With KKKKKHKKPIES the figure was 0.666 ± 0.022; with KKKKKIPKKAKR, 0.666 ± 0.049; with KKKKKKEYTKTN, 0.718 ± 0.011.

For the sequence KKKKKKKKEKKK, the protein stability index stood at 0.726 ± 0.041.

KKKKKKKKKKKK displayed a protein stability index of 0.6364 ± 0.00086. The sequence KKKKKKKNTKTK came in with a protein stability index of 0.644 ± 0.0076. With KKKKKKKTKKQK the figure was 0.696 ± 0.024; with KKKKKKKTKKRK, 0.717 ± 0.029; with KKKKKKNNSKTT, 0.739 ± 0.19. KKKKKKTKNEIK came in with a protein stability index of 0.643 ± 0.016. With KKKKKNKKENAE the figure was 0.742 ± 0.086. Sequence KKKKKNTIKKNK came in with a protein stability index of 0.708 ± 0.0083. With KKKKKPKKQNSG the figure was 0.6592 ± 0.0047; with KKKKKQKKKKGT, 0.713 ± 0.034. With KKKKKQRNQKAK the figure was 0.612 ± 0.032; with KKKKKSKKKETR, 0.807 ± 0.11; with KKKKNHKRKKRN, 0.828 ± 0.041. With KKKKNKKKKKPK the figure was 0.615 ± 0.041. Sequence KKKKQKIRKVKK gave a protein stability index of 0.725 ± 0.084. With KKKKTKPKPKRM the figure was 0.6594 ± 0.0047; with KKKNRKQKHKQL, 0.565 ± 0.014.

As to KKKQKKERKKTK, the protein stability index was 0.649 ± 0.042.

Turning to KKKRKDKTKIDK, the protein stability index turned out to be 0.658 ± 0.057. With KKKRKKKNRGKK the figure was 0.6789 ± 0.004; with KKKTKTQTGKKS, 0.744 ± 0.016; with KKKTRIYKRQKR, 0.655 ± 0.077. With KKLGLINITIRV the figure was 0.535 ± 0.017; with KKLNTYISQIEQ, 0.707 ± 0.0079; with KKMKSKTKEINK, 0.698 ± 0.035.
